# From patent US10391048B2, “Recombinant high-stability superoxide dismutase and application thereof” (Hangzhou Redox Pharmatech Co., Ltd., priority 2016, dated 2019)
# Where “and” joins values, the source holds several entries; their conditions need not be identical. Equal entries are not always repeated. Marks after values point to notes of the source that are not given here.
# Tests used:
# [1] = tested on: copper sulfate induced zebrafish inflammation model; assay: anti-inflammatory effect on copper sulfate-induced inflammation; type: in vivo; set-up: numbers of neutrophils (mean ± SE): dose or concentration left out as unconfirmed; details: 5 hours; for Inflammation resolution rate (%): copper sulfate
# Experimental: The specific method was described by d'Alencon et al., BMCBiology.
# The images were analyzed by Nikon NIS-ElementsD3.10 advanced image processing software.
# [2] = tested on: tail amputation injury zebrafish inflammation; assay: anti-inflammatory effect on inflammation of tail amputation injury; details: 5 hours
# Experimental: Model making: The model of zebrafish inflammation was established by mechanical amputation of tail fins of transgenic neutrophil fluorescent zebrafish.
# The transgenic neutrophil fluorescent zebrafish were randomly selected and put in the six-well plate after mechanical amputation of tail fins, 30 per well. […] The normal control group and model control group were set at the same time. […] Image analysis was performed with Nikon NIS-Elements D3.10 advanced image processing software, the number of neutrophils (N) in zebrafish was calculated, and quantitatively analyzed. The formula of the rate of inflammation resolution was as follows:
# [3] = tested on: LPS-induced zebrafish inflammation model; assay: anti-inflammatory effect on LPS-induced inflammation; details: 5 hours; for numbers of neutrophils (mean ± SE): model control 17.8
# Experimental: The zebrafish inflammation model was established by treatment of transgenic neutrophil fluorescent zebrafish through LPS injection.
# The zebrafishes were randomly selected and put in the six-well plate, 30 per well. […] The normal control group and model control group were set at the same time. […] Image analysis was performed with Nikon NIS-Elements D3.10 advanced image processing software, the number of neutrophils (N) in zebrafish was calculated, and quantitatively analyzed. The formula of the rate of inflammation resolution was as follows:
# [4] = tested on: TNBS-induced colonitis zebrafish model; assay: pathological analysis of intestinal tract tissue; type: in vivo; details: 15 μg/mL, 48 hours
# Excerpt: The fixed zebrafish was observed under the microscope for the colonic tissue and photographed for histopathological analysis, as described in the experimental results.
# [5] = 1 h
# Experimental: (§1) The enzyme activity of SOD was determined by pyrogallol autoxidation method.
# [6] = tested on: TNBS-induced colonitis zebrafish model; assay: therapeutic efficiency on TNBS-induced colonitis (intestinal lumen area); type: in vivo; details: 48 hours, model control 197660, normal control 130711
# Experimental: (Please refer to A. Jemal, R. Siegel, J. Xu, et al. Ward. Clinicians, 2010, 277-300, and Intestinal Upregulation of Melanin-Concentrating Hormone in TNBS-Induced Enterocolitis in Adult Zebrafish. Plos One, 2013, 8(12):1524-1528).
# Image analysis was performed by image analysis software, the area of zebrafish intestinal lumen was calculated, and quantitative analysis was carried out, and the statistical result was expressed with X±SE:
# The therapeutic efficiency of the positive control group was calculated by replacing the treatment group in the above formula with the positive control group;
# zebrafish [7] = assay: maximum non-lethal concentration (MNLC), 48 h treatment; type: in vivo; details: for Death rate (%) / Death (tail): 48 hours; for Death (tail): 30 zebrafish
# Experimental: 30 zebrafishes were treated in each experiment group;
# During the experiment course, count dead zebrafish every day and remove dead zebrafish;
# [8] = stability of SOD at different pH; type: physicochemical; details: pH 12
# Experimental: as §1
# zebrafish [9] = assay: maximum non-lethal concentration (MNLC), 5 h treatment; type: in vivo; details: 2000 μg/mL for 5 hours
# Experimental: 30 zebrafishes were treated in each experiment group. During the course of the experiment, the dead zebrafishes were counted and removed. After the M-type SOD treatment, the number of dead zebrafishes in each experiment group was counted, and MNLC was determined. […] Therefore, the concentration of 2000 μg/mL was selected as the maximum concentration in the evaluation of anti-inflammatory effect of SOD.
# [10] = tested on: TNBS-induced colonitis zebrafish model; assay: inflammation resolution of TNBS-induced colonitis (intestinal neutrophils); details: intestinal tract, 48 hours, model control 9.4, normal control 1.6
# Experimental: Transgenic neutrophil fluorescent zebrafish of 3 days after fertilization was used to establish a zebrafish colonitis model after incubation for 48 h in water for fish containing a final concentration of 4.5 μM TNBS.
# Model control group: TNBS-induced colonitis zebrafish model (model 2);
# Positive control group: prednisone was added to water for fish at a final concentration of 15 μg/mL;
# 30 transgenic neutrophil fluorescent zebrafishes were treated in each experiment group for 48 hours;
# Experimental for pepsin: Preparation of simulated gastric fluid: in accordance with the standard of the Pharmacopoeia 2010, namely: take dilute hydrochloric acid 16.4 ml (dilute hydrochloric acid: diluted hydrochloric acid 234 ml with water up to 1000 ml. The HCl contained in the solution should be 9.5% to 10.5%), add about 800 ml of water and pepsin 10 g (Sinopharm, 20141209) and shake well, then add water up to 1000 ml.
# as §1
molecule,measurement,setting,value
"COc1ccc2c(c1)c(CC(=O)O)c(C)n2C(=O)c1ccc(Cl)cc1 [indometacin, reference compound]",Inflammation resolution rate (%),[1]; 60 μM,88*** %
same,Inflammation resolution rate (%),[2]; 60 μM,62%
same,Inflammation resolution rate (%),[3]; 60 μM,72%
"C[C@]12C=CC(=O)C=C1CC[C@@H]1[C@@H]2C(=O)C[C@@]2(C)[C@H]1CC[C@]2(O)C(=O)CO [prednisone, reference compound]",intestinal histopathology,[4],intestinal mucosal histology was improved significantly
"M-type SOD: mutant high temperature resistant superoxide dismutase, amino acid sequence SEQ ID NO. 4; position 202 mutated from lysine to asparagine versus W-type SOD (protein, amino acid sequence of M-type SOD, position 202 mutated from lysine to asparagine versus W-type SOD) MPYPFKLPDLGYPYEALEPHIDAKTMEIHHQKHHGAYVTNLNAALEKYPYLHGVEVEVLLRHLAALPQDIQTAVRNNGGGHLNHSLFWRLLTPGGAKEPVGELKKAIDEQFGGFQALKEKLTQAAMGRFGSGWAWLVKDPFGKLHVLSTPNQDNPVMEGFTPIVGIDVWEHAYYLKYQNRRADYLQAIWNVLNWDVAEEFFNKA",resistance against pepsin degradation,pepsin,significantly better than ordinary SOD
same,numbers of neutrophils (mean ± SE),[1]; model control 15.5,14.9 and 14.9 ± 0.6
same,Inflammation resolution rate (%),[1]; 15 μg/mL,4%
same,Inflammation resolution rate (%),[1]; 50 μg/mL,24%
same,Inflammation resolution rate (%),[1]; 150 μg/mL,47%
same,Inflammation resolution rate (%),[1]; 450 μg/mL,77%
same,Inflammation resolution rate (%),[1]; 1350 μg/mL,91%
same,Inflammation resolution rate (%),[1]; 2000 μg/mL,92%
same,thermal stability (remaining enzyme activity),[5],maintained extremely high stability within a wider temperature range
same,intestinal lumen area (mean ± SE),[6]; 15 μg/mL in water for fish,153560 ± 6080
same,intestinal lumen area (mean ± SE),[6]; 50 μg/mL in water for fish,142595 ± 3167
same,intestinal lumen area (mean ± SE),[6]; 150 μg/mL in water for fish,141259 ± 5359
same,Inflammation resolution rate (%),[2]; 150 μg/mL,29%
same,Inflammation resolution rate (%),[2]; 450 μg/mL,51%
same,Inflammation resolution rate (%),[2]; 1350 μg/mL,58%
same,Inflammation resolution rate (%),[2]; 2000 μg/mL,59%
same,intestinal histopathology,[4]; 50 μg/mL and 150 μg/mL,the inflammation of intestinal mucosa was significantly improved
same,Death rate (%),zebrafish [7]; 150 μg/mL,0%
same,Death (tail),zebrafish [7]; 150 μg/mL,0 tail
same,Death rate (%),zebrafish [7]; 200 μg/mL,20%
same,Death (tail),zebrafish [7]; 200 μg/mL,6 tail
same,Death rate (%),zebrafish [7]; 330 μg/mL,100%
same,Death (tail),zebrafish [7]; 330 μg/mL,30 tail
same,Death rate (%),zebrafish [7]; 1000 μg/mL,100%
same,Death (tail),zebrafish [7]; 1000 μg/mL,30 tail
same,Death rate (%),zebrafish [7]; 3000 μg/mL,100%
same,Death (tail),zebrafish [7]; 3000 μg/mL,30 tail
same,MNLC,"zebrafish [7]; zebrafish, treatment for 48 hours",150 µg/mL
same,Inflammation resolution rate (%),[3]; 15 μg/mL,0%
same,numbers of neutrophils (mean ± SE),[3]; 15 μg/mL,17.7 and 17.7 ± 1.4
same,Inflammation resolution rate (%),[3]; 50 μg/mL,16%
same,numbers of neutrophils (mean ± SE),[3]; 50 μg/mL,14.9 and 14.9 ± 1.0
same,Inflammation resolution rate (%),[3]; 150 μg/mL,31%
same,Inflammation resolution rate (%),[3]; 450 μg/mL,34%
same,Inflammation resolution rate (%),[3]; 1350 μg/mL,58%
same,Inflammation resolution rate (%),[3]; 2000 μg/mL,65%
same,activity kept,[8],97%
same,toxic effects on zebrafish,zebrafish [9],no toxic effects
same,number of neutrophils (mean ± SE),[10]; 15 μg/mL,6.8 ± 0.88
same,number of neutrophils (mean ± SE),[10]; 50 μg/mL,5.6 ± 0.45
same,number of neutrophils (mean ± SE),[10]; 150 μg/mL,3.7 ± 0.53
